For assay [1], the target named is T1, recombinant human CTGF protein (R&D Systems, SEQ ID NO: 79) (human, UniProt P29279 27-349).
T1 construct: Bought; also called human CTGF/CNN2; huCTGF
T1 sequence: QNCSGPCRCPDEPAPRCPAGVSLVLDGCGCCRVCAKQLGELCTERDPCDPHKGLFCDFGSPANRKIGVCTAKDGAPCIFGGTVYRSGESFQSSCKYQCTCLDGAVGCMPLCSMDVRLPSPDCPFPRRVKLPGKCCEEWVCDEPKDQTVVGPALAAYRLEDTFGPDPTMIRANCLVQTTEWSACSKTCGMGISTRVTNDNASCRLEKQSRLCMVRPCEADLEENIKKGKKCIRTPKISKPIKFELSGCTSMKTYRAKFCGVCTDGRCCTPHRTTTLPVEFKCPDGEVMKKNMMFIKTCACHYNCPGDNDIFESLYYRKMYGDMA
Description: HTRF, 1 nM biotinylated human CTGF. The method, then:
Binding of some fusion proteins was tested by a Homogeneous Time Resolved Fluorescence (HTRF assay). In detail, 1 nM of biotinylated human CTGF (R&D Systems) was incubated for 1 h with a titration of some lipocalins starting at 5 nM in 384 Flat Bottom White Polystyrol microtiter plate (Greiner). Samples were diluted in PBS containing 0.1% Tween 20 and 2% BSA. As donor, Streptavidin-Terbium at a concentration of 0,006 μg/mL was used, the acceptor was 0.2 μg/mL anti-His-d2 (both CisBio). After another 1 h of incubation, the fluorescence intensity of the donor and acceptor on the plate was read using a fluorescence microplate reader M1000 (Tecan) with the standard settings recommended by CisBio. The calculated ratio of signals was used for the curve fitting performed in GraphPad Prism 7 software.

Assay [2] concerns the target T2, cynomolgus CTGF (cynomolgus, UniProt I7G525 27-349).
T2 construct: also called cyCTGF
T2 sequence: T1 sequence with D11A, P13Q, M250V
Description: SPR (Biacore). As to the method: (§1) The binding of exemplary lipocalin muteins to human (Creative Biomart), cynomolgus, rat (R&D Systems) and mouse CTGF (Abbexa) was determined by SPR using a Biacore instrument (Cytiva, formerly GE Healthcare). Some targets were fused to a human IgG1 Fc tag, and captured via the anti-human IgG antibody kit, others were directly immobilized.
(§2) For some measurements, human CTGF with a human IgG1 Fc Tag or rat or murine CTGF without a tag were directly immobilized to a CM5 Chip. The carboxyl groups on the chip were activated using 1-ethyl-3-(3-dimethylaminopropyl)-carbodiimide (EDC) and N-hydroxysuccinimide (NHS). […] Residual non-reacted NHS-esters were blocked by passing a solution of 1 M ethanolamine across the surface. The reference channel was activated/deactivated. For the capture setting, targets with an IgG Fc Tag at 0.25-2.5 μg/mL in HBS-EP+ buffer were captured by the anti-human IgG-Fc antibody at the chip surface for 180 s at a flow rate of 10 μL/min.
(§3) The binding assay was carried out with a contact time of 180 s, a dissociation time of 900-3600 s and a flow rate of 30 μL/min. All measurements were performed at 25° C. […] For the directly immobilized targets, the same regeneration conditions were used. Prior to the protein measurements, three startup cycles were performed for conditioning purposes.

Assay [3] concerns the target T3, recombinant human CTGF-Fc protein (Creative Biomart) (human).
T3 construct: Bought; also called human CTGF with a human IgG1 Fc Tag
As to the kind of experiment: SPR (Biacore). The method, then: as §1, §2, §3
(In general: In SPR one partner is held on a chip, and binding of the other changes the refractive index at the surface.)

Assay [4] concerns the target T4, recombinant rat CTGF protein (R&D Systems) (rat, UniProt Q9R1E9 25-347).
T4 construct: Bought; also called rCTGF
T4 sequence: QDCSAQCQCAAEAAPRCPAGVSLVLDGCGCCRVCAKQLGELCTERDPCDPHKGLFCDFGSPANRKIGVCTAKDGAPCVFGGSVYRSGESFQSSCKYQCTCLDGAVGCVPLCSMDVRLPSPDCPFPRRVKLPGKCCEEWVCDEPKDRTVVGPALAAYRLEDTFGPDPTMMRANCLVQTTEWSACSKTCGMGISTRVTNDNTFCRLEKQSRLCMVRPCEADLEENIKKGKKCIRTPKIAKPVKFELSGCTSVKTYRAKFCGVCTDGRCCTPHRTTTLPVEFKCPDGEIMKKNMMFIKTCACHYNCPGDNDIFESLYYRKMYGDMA
Description: SPR (Biacore). The method, then: as §1, §2, §3

Assay [5] deals with T5, mouse CTGF (Abbexa) (mouse, UniProt P29268 26-348, limits assumed).
T5 construct: also called Murine CTGF; mCTGF
T5 sequence (looked up): T4 sequence with R16H, V148A
Description: SPR (Biacore). As to the method:
as §1, §2, §3

Residue numbers refer to the chain shown, from its start.

T3 sequence (chain, as listed by the source limits assumed): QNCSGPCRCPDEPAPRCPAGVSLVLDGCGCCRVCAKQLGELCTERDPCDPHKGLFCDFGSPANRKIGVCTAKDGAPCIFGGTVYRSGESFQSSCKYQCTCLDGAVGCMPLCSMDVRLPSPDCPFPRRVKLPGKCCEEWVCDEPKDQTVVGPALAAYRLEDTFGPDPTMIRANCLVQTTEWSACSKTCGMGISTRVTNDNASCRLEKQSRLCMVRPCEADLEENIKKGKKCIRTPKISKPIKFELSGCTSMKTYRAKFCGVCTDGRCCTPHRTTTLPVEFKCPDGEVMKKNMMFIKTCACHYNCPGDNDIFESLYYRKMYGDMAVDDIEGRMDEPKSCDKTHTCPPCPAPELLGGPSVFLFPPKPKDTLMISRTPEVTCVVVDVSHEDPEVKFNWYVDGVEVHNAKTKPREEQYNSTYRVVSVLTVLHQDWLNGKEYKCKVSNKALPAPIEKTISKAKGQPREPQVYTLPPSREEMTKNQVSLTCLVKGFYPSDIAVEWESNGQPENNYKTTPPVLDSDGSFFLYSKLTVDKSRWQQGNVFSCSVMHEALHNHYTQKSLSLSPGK

B1: fusion protein of SEQ ID NO: 62 (designed binder)
chain: QDSTSDLIPAPPLSKVPLQQNFQDNQFQGKWYVVGRAGNNQLREDKSPPKMWATIYELKEDKSYDVTHVHFSTKKCRYIIDTFVPGSQPGEFTAGAIKSGPGLTSPLVRVVSTNYNQHAMVFFKWVTQNREWFTITLYGRTKELTSELKENFIRFSKSLGLPENHIVFPVPIDQCIDGGGGGSGGGGSGGGGSQDSTSDLIPAPPLSKVPLQQNFQDNQFQGKWYVVGWAGNVKLREDKQPQKMSATIYELKEDKSYDVTEVVFEQKKCHYIIKTFVPGSQPGEFTAGDIKSPPGYTSSLVRVVSTNYNQHAMVFFKKVSQNREFFWITLYGRTKELTSELKENFIRFSKSLGLPENHIVFPVPIDQCIDG
notes: not shown: C-terminal His-tag
Take B1: in assay [1], the EC50 was 0.63 nM.

B2: fusion protein of SEQ ID NO: 68 (designed binder)
chain: QDSTSDLIPAPPLSKVPLQQNFQDNQFQGKWYVVGLAGNAILREDKQPAKMFATIYELKEDKSYDVTSVRFEAKSCSYTSKTFVPGSQPGEFTAGNIKSAPGQTSTLVRVVSTNYNQHAMVFFKHVSQNRETFVITLYGRTKELTSELKENFIRFSKSLGLPENHIVFPVPIDQCIDGGGGGSGGGGSGGGGSQDSTSDLIPAPPLSKVPLQQNFQDNQFQGKWYVVGWAGNVKLREDKQPQKMSATIYELKEDKSYDVTEVVFEQKKCHYIIKTFVPGSQPGEFTAGDIKSPPGYTSSLVRVVSTNYNQHAMVFFKKVSQNREFFWITLYGRTKELTSELKENFIRFSKSLGLPENHIVFPVPIDQCIDG
notes: not shown: C-terminal His-tag
With B2, the concentration for a half-maximal effect (EC50) in assay [1] is 0.56 nM.

B3: fusion protein of SEQ ID NO: 71 (designed binder)
chain: B2 chain with Q47Y, A73N, S77V, S80I, A94T, T132F
notes: not shown: C-terminal His-tag
For the molecule B3, the 50% effective concentration (EC50) in assay [1] worked out at 0.94 nM.

B4: fusion protein of SEQ ID NO: 73 (designed binder)
chain: B2 chain with Q47Y, A73N, S77V, A94T, T132F
notes: not shown: C-terminal His-tag
For the molecule B4, the EC50 in assay [1] turned out to be 0.83 nM.

B5: lipocalin mutein of SEQ ID NO: 24 (designed binder)
chain: QDSTSDLIPAPPLSKVPLQQNFQDNQFQGKWYVVGVAGNAILRTDKQPAKMFATIYELKEDKSYDVTSVRFEAKSCKYTIKTFVPGSQPGEFTAGNIKSAPGQTSTLVRVVSTNYNQHAMVFFKHVSQNREIFVITLYGRTKELTSELKENFIRFSKSLGLPENHIVFPVPIDQCIDG
notes: also called hNGAL mutein
For the molecule B5, the Kd in assay [2] is 0.135 nM; in assay [3], 0.09 nM; in assay [4], 0.255 nM; in assay [5], 0.034 nM. Also, the koff in assay [2] was determined as 2.63e-05 s⁻¹; in assay [3] it was 1.41e-05 s⁻¹; in assay [4] it was 3.51e-05 s⁻¹; in assay [5], 1.16e-05 s⁻¹. In addition, the on-rate (kon) in assay [2] came to 195000 M⁻¹ s⁻¹; in assay [3], 157000 M⁻¹ s⁻¹; in assay [4] it was 138000 M⁻¹ s⁻¹; in assay [5], 299000 M⁻¹ s⁻¹.

B6: lipocalin mutein of SEQ ID NO: 31 (designed binder)
chain: QDSTSDLIPAPPLSKVPLQQNFQDNQFQGKWYVVGWAGNVKLREDKQPQKMSATIYELKEDKSYDVTEVVFEQKKCHYIIKTFVPGSQPGEFTAGDIKSPPGYTSSLVRVVSTNYNQHAMVFFKKVSQNREFFWITLYGRTKELTSELKENFIRFSKSLGLPENHIVFPVPIDQCIDG
notes: also called hNGAL mutein; not shown: C-terminal His-tag
With B6, the dissociation constant Kd in assay [2] stood at 0.452 nM; in assay [3], 0.249 nM; in assay [4], 1.89 nM; in assay [5], 1.58 nM. Further, the koff came out at 7.31e-05 s⁻¹ in assay [2], 4.85e-05 s⁻¹ in assay [3], 0.000423 s⁻¹ in assay [4] and 0.000444 s⁻¹ in assay [5]. Moreover, the on-rate constant (kon) in assay [2] worked out at 162000 M⁻¹ s⁻¹; in assay [3], 195000 M⁻¹ s⁻¹; in assay [4] it was 223000 M⁻¹ s⁻¹; in assay [5] it was 281000 M⁻¹ s⁻¹.

B7: lipocalin mutein of SEQ ID NO: 34 (designed binder)
chain: B6 chain with K41I, Q49F, A94L, Y103E, S106T
notes: also called hNGAL mutein
As for B7, in assay [2], the equilibrium dissociation constant (Kd) came to 1.72 nM, the off-rate constant (koff) worked out at 0.000238 s⁻¹ and the on-rate constant (kon) worked out at 139000 M⁻¹ s⁻¹. In addition, in assay [3], the dissociation constant Kd was found to be 1.13 nM, the koff is 0.000169 s⁻¹ and the kon is 150000 M⁻¹ s⁻¹. In assay [5], this molecule yielded a dissociation constant (Kd) of 11.9 nM, a koff of 0.00286 s⁻¹ and a kon of 240000 M⁻¹ s⁻¹.

B8: lipocalin mutein of SEQ ID NO: 36 (designed binder)
chain: B6 chain with Q49A, S127G
notes: also called hNGAL mutein
In assay [2], B8 showed a dissociation constant (Kd) of 0.695 nM, a dissociation rate constant (koff) of 9.77e-05 s⁻¹ and a kon of 141000 M⁻¹ s⁻¹. Besides, in assay [3], the dissociation constant (Kd) was found to be 0.42 nM, the koff came out at 6.95e-05 s⁻¹ and the on-rate (kon) was 165000 M⁻¹ s⁻¹. In assay [5], binding was characterised by a dissociation constant (Kd) of 1.68 nM, the koff was 0.00052 s⁻¹ and the association rate constant (kon) was determined as 310000 M⁻¹ s⁻¹.

B9: fusion protein of SEQ ID NO: 64 (designed binder)
chain: QDSTSDLIPAPPLSKVPLQQNFQDNQFQGKWYVVGLAGNYRLREDKDPSKMGATIYELKEDKSYDVTQVQFDDKKCLYVIETFVPGSQPGEFTLGAIKSYPGLTSQLVRVVSTNYNQHAMVFVKKVWPNLEYFQIVLYGRTKELTSELKENFIRFSKSLGLPENHIVFPVPIDQCIDGGGGGSGGGGSGGGGSQDSTSDLIPAPPLSKVPLQQNFQDNQFQGKWYVVGLAGNAILREDKQPAKMFATIYELKEDKSYDVTSVRFEAKSCKYTIKTFVPGSQPGEFTAGYIKSAPGQTSTLVRVVSTNYNQHAMVFFKHVTQNREIFVITLYGRTKELTSELKENFIRFSKSLGLPENHIVFPVPIDQCIDG
notes: not shown: C-terminal His-tag
On to B9, for which the EC50 in assay [1] is 0.58 nM.

B10: fusion protein of SEQ ID NO: 63 (designed binder)
chain: QDSTSDLIPAPPLSKVPLQQNFQDNQFQGKWYVVGRAGNNQLREDKSPPKMWATIYELKEDKSYDVTHVHFSTKKCRYIIDTFVPGSQPGEFTAGAIKSGPGLTSPLVRVVSTNYNQHAMVFFKWVTQNREWFTITLYGRTKELTSELKENFIRFSKSLGLPENHIVFPVPIDQCIDGGGGGSGGGGSGGGGSQDSTSDLIPAPPLSKVPLQQNFQDNQFQGKWYVVGLAGNAILREDKQPAKMFATIYELKEDKSYDVTSVRFEAKSCKYTIKTFVPGSQPGEFTAGYIKSAPGQTSTLVRVVSTNYNQHAMVFFKHVTQNREIFVITLYGRTKELTSELKENFIRFSKSLGLPENHIVFPVPIDQCIDG
notes: not shown: C-terminal His-tag
On to B10, for which the EC50 in assay [1] was found to be 0.58 nM.

Broadly, the EC50 is the concentration needed to bring the measured effect to its halfway point. The Kd is the free concentration of one partner at which half of the binding sites on the other are occupied at equilibrium, for simple one-to-one binding. A word on the koff: it is a measure of how fast the partners let go of each other. One may read the kon as a measure of how fast the partners come together.

The record behind these values is patent US20240228562A1 (Pieris, published 2024).
